Laboratory results from patent US20080279841A1, “Novel Therapeutic Molecular Variants And Uses Thereof” (MEDVET SCIENCE PTY LTD., priority 2000, published 2008).
“Also recorded” adds a separate entry of the source. Like-named read-outs stand apart in the source and are kept apart here.

Experiments:
[1] = target: wild-type sphingosine kinase (Homo sapiens, UniProt Q9NYA1); settings: chemical inhibitor hitherto used widely; cited from earlier work
[2] = Sphingosine kinase activity of lysates of HEK293/HEK293T cells transfected with hSK or mutant hSK; assay type: biochemical, human; settings: for sphingosine kinase (catalytic) activity of the variant itself: transfected HEK293 cells (FIG. 2); for Vmax: standardised for the expression levels of the two recombinant proteins
Procedure: (§1) Cell Culture and Transfection—Human embryonic kidney cells (HEK293T, ATCC CRL-1573) cells were cultured on Dulbecco's modified Eagle's medium (DMEM; CSL Biosciences, Parkville, Austrlia) containing 10% fetal calf serum, 2 mM glutamine, 0.2% (w/v) sodium bicarbonate, penicillin (1.2 mg/ml), and gentamycin (1.6 mg/ml). Transfections were performed using the calcium phosphate precipitation method (Graham & van der Eb, 1973). Cells were harvested and lysed by sonication (2 watts for 30 s at 4° C.) in lysis buffer containing 50 mM Tris/HCl (pH 7.4), 10% glycerol, 0.05% Triton X-100, 150 mM NaCl, 1 mM dithiothreitol, 2 mM Na3VO4 10 mM NaF, and 1 mM EDTA. Protein concentrations in cell homogenates were determined with either the Coomassie Brillant Blue (Sigma) or Bichinchoninic acid (Pierce) reagents using BSA as standard.
as §1, with “Australia)” for “Austrlia)”, “Na3VO4,” for “Na3VO4”, “with” for “with either”, “Brilliant” for “Brillant”, “reagent” for “or Bichinchoninic acid (Pierce) reagents”
(§2) Kinetic parameters were calculated using a non-linear regression program.

[3] = test system: endogenous sphingosine kinase; test: Activation of endogenous sphingosine kinase activity by TNFα, IL-1 and PMA in HEK293 cells expressing the variant; assay type: cell-based, human; settings: for effect on increases in sphingosine kinase activity after activating agents: 100 units/ml IL-1 10 min, 100 ng/ml PMA 30 min (FIGS. 3 & 4)
Procedure: HEK293 cells transfected with either pcDNA3-G82DSK or empty pcDNA3 vector were treated with 1 ng/ml TNFα and 100 units/ml IL-1 for 10 min and 100 ng/ml PMA for 30 min.
FIG. 4 is a graphical representation of time course of sphingosine kinase activation by TNFα in HEK293 cells expressing G82D SK. HEK293 cells transfected with either pcDNA3-G82DSK or empty pcDNA3 vector were treated with 1 ng/ml TNFα. Cells were harvested at various times over 45 min. of TNFα treatment with the cell lysates assayed for sphingosine kinase activity.
as §1

[4] = test system: overexpressed wild-type sphingosine kinase; test: Activation of overexpressed wild-type sphingosine kinase by TNFα in cotransfected HEK293 cells; assay type: cell-based, human; settings: for effect on activation of overexpressed wild-type sphingosine kinase: HEK293 cells cotransfected with equal proportions, 1 ng/ml TNFα 10 min (FIG. 5)
Procedure: HEK293 cells, either transfected with pcDNA3-SK, or cotransfected with equval proportions of pcDNA3-SK and pcDNA3-G82DSK were treated with 1 ng/ml TNFα for 10 min. Cells were then harvested and the SK activity in the cell lysates determined.
as §1

[5] = test system: sphingosine kinase stimulated by the oncogene Ras; test: Activation of SK by the oncogene Ras in 3T3 fibroblasts; assay type: cell-based; settings: 3T3 fibroblasts (FIG. 6)
Procedure: (§3) A. NIH 3T3 cells were transfected with V12-Ras, v-Src or V12-Ras plus G82D-SK, SphK activity was measured 48 h after transfection. B. Focus formation assays were performed in V12-Ras, v-Src, SphK, or V12-Ras plus G82D-SK transfected NIH 3T3 cells in the absence or presence of DMS (2.5 μM) over two weeks.
(§4) For focus formation assay, low passage NIH 3T3 cells were transfected with the V12 mutant H-ras, v-SRC (gifts from Dr. Julian Downward^2), SphK, G82D mutant SphK expression vectors or empty vector using Lipofectamine Plus as described above. Two days later, the transfected cells were split to 6-well plates. After reaching confluence, they were kept for two weeks in DMEM containing 5% calf serum. The foci were visualized and scored after staining with 0.5% crystal violet. For soft agar assay, suspensions of 1×10^4 cells from the stable transfected pools in a growth medium containing 0.33% agar were overlaid onto 0.6% agar gel in the absence or presence of DMS at various concentrations. After 14-days incubation colonies were stained with 0.1 mg/ml MTT and those greater than 0.1 mm in diameter were scored as positive.

protein kinase C = test: Protein kinase C activity in situ in HEK293 cells (TNFα or PMA); assay type: cell-based, human; settings: TNFα or PMA (FIG. 7)
Procedure: (§5) Neutral sphingomyelinase activity was determined using [choline-methyl-^14C]sphingomyelin as substrate, essentially as previously described (Wiegmann et al., 1994). Briefly, whole cell lysates, prepared as described above, were added to an equal volume of 100 mM Tris/HCl buffer (pH 7.4) containing 0.2% Triton X-100, 10 mM MgCl2 and [choline-methyl-^14C]sphingomyelin (50,000 cpm/assay) and incubated at 37° C. for 60 min. Radioactive phosphorylcholine produced was then extracted with chloroform/methanol (2:1, v/v) and quantified in the aqueous phase by scientillation counting. The measurement of PKC activity in situ was performed as described previously (Xia et al., 1996). Briefly, cells were seeded in 24-well plates and maintained in culture medium until 70-80% confluent. After the indicated treatments, the cells were washed with DMEM and placed in 60 μl of buffered salt solution (137 mM NaCl, 5.4 mM KCl, 0.3 mM Na2HPO4, 0.4 mM KH2PO4, 5.5 mM glucose, and 20 mM HEPES) supplemented with 50 μg/ml digitonin, 10 mM MgCl2, 25 mM β-glycerophosphate, and 10 μM [γ^32P]ATP (5000 cpm/pmol). A PKC-specific peptide substrate ([sequence]) was then added (to 2001) in the presence of 5 mM EGTA and 2.5 mM CaCl2. […] The PKC-dependent phosphorylated peptide substrate bound to the filter was quantified by scintillation counting.

ERK = ERK activation by TNFα in HEK293 cells (Western blot); assay type: cell-based, human; settings: TNFα (FIG. 9)
Procedure: Western Blotting—SDS-PAGE was performed on cell lysates according to the method of Laemmli using 12% acrylamide gels. Proteins were blotted to nitrocellulose and the membranes blocked overnight at 4° C. in PBS containing 5% skim milk and 0.1% Triston X-100. Sphingosine kinase expression levels were analysed with the M2 anti-FLAG antibody (Sigma). ERK activation in response to agonists was followed in cells serum-starved for 4 h using anti-ERK1/2 (Zymed, San Francisco, Calif.) and anti-phospho-ERK1/2 (Promega, Madison, Wis.) antibodies. Immunocomplexes were detected after conjugation to either HRP anti-mouse (Pierce) or anti-rabbit (Selinus/AMRAD, Melbourne, Australia) IgG using an enhanced chemiluminescence kit (Amersham).

NIH 3T3 cells = test: Focus formation (transformation) assay in V12-Ras transfected NIH 3T3 cells; assay type: cell-based; settings: V12-Ras plus G82D-SK transfected NIH 3T3 cells, two weeks (FIG. 11)
Procedure: as §3, §4

sphingomyelinase = settings: HEK293 cells, TNF (FIG. 8)
Procedure: as §5

[6] = Kinetic analysis of hSK with ATP; assay type: biochemical, human
Procedure: Kinetic analyses were performed with ATP in the concentration range of 0-2 mM and 0-40 mM for hSK^WT and hSK^G82A, respectively. In both cases sphingosine was present at 100 μM.
as §2

[7] = Kinetic analysis of hSK with sphingosine; assay type: biochemical, human; settings: for Km: sphingosine 0-2 mM, ATP 1 mM (hSK^WT), 40 mM (hSK^G82A), non-linear regression
Procedure: Kinetic analyses were performed with sphingosine in the concentration range of 0-2 mM for both hSK^WT and hSK^G82A. ATP was present at 1 mM and 40 mM for hSK^WT and hSK^G82A, respectively.
as §2

CCCCCCCCCCCCC/C=C/[C@@H](O)[C@H](CO)N(C)C [DMS, N′N-dimethylsphingosine]
effect on wild-type sphingosine kinase function [1]: totally eliminates

B1: G82DSK: human sphingosine kinase mutant, substitution of the glycine at position 82 to aspartic acid (protein)
chain: MDPAGGPRGVLPRPCRVLVLLNPRGGKGKALQLFRSHVQPLLAEAEISFTLMLTERRNHARELVRSEELGRWDALVVMSGDDLMHEVVNGLMERPDWETAIQKPLCSLPAGSGNALAASLNHYAGYEQVTNEDLLTNCTLLLCRRLLSPMNLLSLHTASGLRLFSVLSLAWGFIADVDLESEKYRRLGEMRFTLGTFLRLAALRTYRGRLAYLPVGRVGSKTPASPVVVQQGPVDAHLVPLEEPVPSHWTVVPDEDFVLVLALLHSHLGSEMFAAPMGRCAAGVMHLFYVRAGVSRAMLLRLFLAMEKGRHMEYECPYLVYVPVVAFRLEPKDGKGVFAVDGELMVSEAVQGQVHPNYFWMVSGCVEPPPSWKPQQMPPPEEPL
sphingosine kinase (catalytic) activity of the variant itself [2]: no sphingosine kinase activity
sphingosine kinase (catalytic) activity of the variant itself ([2]; listed as G82D): catalytically inactive
effect on increases in sphingosine kinase activity after activating agents ([3]; 1 ng/ml TNFα): totally suppresses; also recorded: only eliminates activation
effect on increases in sphingosine kinase activity after activating agents ([3]; 1 ng/ml TNFα, listed as G82D SK): blocks activation
effect on TNF mediated sphingosine kinase activation over time ([3]; 1 ng/ml TNFα, time course over 45 min (FIG. 4)): inhibits TNF mediated activation at all time point
effect on endogenous baseline sphingosine kinase activity ([3]; no stimulus (FIG. 2)): does not suppress
effect on activation of overexpressed wild-type sphingosine kinase [4]: activation is decreased
effect on activation of overexpressed wild-type sphingosine kinase ([4]; listed as G82D SK): decreases activation
effect on overexpressed baseline sphingosine kinase levels ([4]; HEK293 cells overexpressing sphingosine kinase (FIG. 5)): not altered
effect on sphingosine kinase stimulated by the oncogene Ras [5]: inhibits
effect on sphingosine kinase stimulated by the oncogene Ras ([5]; listed as G82D SK): inhibiting activation
effect on activation of protein kinase C (protein kinase C): does not depress
effect on activation of protein kinase C (protein kinase C; listed as G82D SK): does not effect activation
effect on activation of erk by TNF (ERK): inhibits
effect on activation of erk by TNF (ERK; listed as G82D SK): prevents ERK activation
effect on Ras transformation (focus formation) (NIH 3T3 cells): inhibits Ras transformation
effect on activation of sphingomyelinase (sphingomyelinase): does not depress
effect on activation of sphingomyelinase (sphingomyelinase; listed as G82D SK): does not inhibit activation

B2: hSK^G82A: human sphingosine kinase mutant, substitution of the glycine at position 82 to alanine (protein, UniProt Q9NYA1 1-384, looked up, variant G82A)
Sphingosine kinase 1: MDPAGGPRGVLPRPCRVLVLLNPRGGKGKALQLFRSHVQPLLAEAEISFTLMLTERRNHARELVRSEELGRWDALVVMSGDALMHEVVNGLMERPDWETAIQKPLCSLPAGSGNALAASLNHYAGYEQVTNEDLLTNCTLLLCRRLLSPMNLLSLHTASGLRLFSVLSLAWGFIADVDLESEKYRRLGEMRFTLGTFLRLAALRTYRGRLAYLPVGRVGSKTPASPVVVQQGPVDAHLVPLEEPVPSHWTVVPDEDFVLVLALLHSHLGSEMFAAPMGRCAAGVMHLFYVRAGVSRAMLLRLFLAMEKGRHMEYECPYLVYVPVVAFRLEPKDGKGVFAVDGELMVSEAVQGQVHPNYFWMVSGCVEPPPSWKPQQMPPPEEPL
Vmax [2]: 32 percentage of the maximum velocity calculated for SK^WT
catalytic activity relative to wildtype hSK ([2]; transfected HEK293T cell lysates (FIG. 12)): ~5%
affinity for ATP compared with wildtype hSK ([6]; FIG. 13): considerably lower affinity for ATP
affinity for sphingosine compared with wildtype hSK ([7]; FIG. 14): remains unaffected
Km [7]: 15.5 µM

B3: hSK^WT: wild-type human sphingosine kinase (SK-1), recombinant, FLAG tagged, expressed in HEK293T cells (protein, UniProt Q9NYA1 1-384, looked up)
Sphingosine kinase 1: MDPAGGPRGVLPRPCRVLVLLNPRGGKGKALQLFRSHVQPLLAEAEISFTLMLTERRNHARELVRSEELGRWDALVVMSGDGLMHEVVNGLMERPDWETAIQKPLCSLPAGSGNALAASLNHYAGYEQVTNEDLLTNCTLLLCRRLLSPMNLLSLHTASGLRLFSVLSLAWGFIADVDLESEKYRRLGEMRFTLGTFLRLAALRTYRGRLAYLPVGRVGSKTPASPVVVQQGPVDAHLVPLEEPVPSHWTVVPDEDFVLVLALLHSHLGSEMFAAPMGRCAAGVMHLFYVRAGVSRAMLLRLFLAMEKGRHMEYECPYLVYVPVVAFRLEPKDGKGVFAVDGELMVSEAVQGQVHPNYFWMVSGCVEPPPSWKPQQMPPPEEPL
modifications: FLAG tag
notes: wild-type human sphingosine kinase (SK-1), recombinant, FLAG tagged, expressed in HEK293T cells
Vmax [2]: 100 percentage of the maximum velocity calculated for SK^WT
Km ([6]; sphingosine 100 μM, ATP 0-2 mM (hSK^WT), 0-40 mM (hSK^G82A), non-linear regression): 115 µM
Km [7]: 12.1 µM
